Reference: article PMC3221699
Where two headings read alike, the source gives them in different places.

Tests used:
IL-10R1 (Homo sapiens) [1] = molecular target: IL-10R1 (Homo sapiens) (UniProt Q13651); conditions: cited from earlier work
[2] = molecular target: human IL-10R1 chain coupled to agarose beads (human) (UniProt Q13651)
[3] = molecular target: IL-10R1-FC fusion protein (human IL-10R1 extracellular region fused to mouse IgG2a FC) (human) (UniProt Q13651); test: SPR; Biacore T200, 20 °C, HBS (10 mM Hepes pH 7.4, 0.15 M NaCl, 0.1% P20, 0.1 mg/mL BSA); IL-10R1-FC captured (~75 RU) by anti-murine FC antibody on a CM5 chip; RhCMVIL-10 (0-100 nM) or M1/M2 (100, 500, 1000 nM) injected at 75 µL/min; global fit to a bivalent analyte model (Rmax, and tc for M1, fixed for the mutants); KD2 called apparent
[4] = molecular target: Rhesus cytomegalovirus IL-10 (RhCMVIL-10), wild type (rhesus cytomegalovirus (RhCMV) strain 68-1); test: SEC; 24 mL Superdex 200 gel filtration column; elution position of affinity purified RhCMVIL-10 compared with cIL-10; fractions analysed by SDS-PAGE
IL-10R1 (Homo sapiens) [5] = molecular target: IL-10R1 (Homo sapiens) (UniProt Q13651); conditions: cited from earlier work; remark: listed apart in the source

cIL-10, sequence (P22301 19-178): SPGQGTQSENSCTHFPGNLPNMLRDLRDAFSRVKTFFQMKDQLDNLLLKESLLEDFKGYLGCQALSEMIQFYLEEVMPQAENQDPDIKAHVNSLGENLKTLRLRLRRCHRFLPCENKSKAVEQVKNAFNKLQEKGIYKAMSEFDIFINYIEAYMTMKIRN

Row | Substance | KD1 (bivalent analyte model, kd1/ka1) [3] [µM] | KD2 (bivalent analyte model, apparent, kd2/ka1) [3] [nM] | ka1 (bivalent analyte model, first step) [3] [M⁻¹ s⁻¹] | ka2 (bivalent analyte model, second step) [3] | kd1 (bivalent analyte model, first step) [3] [s⁻¹] | kd2 (bivalent analyte model, second step) [3] [s⁻¹] | also measured
1 | CMVIL-10 (from UniProt P17150) | – | – | – | – | – | – | Kd (IL-10R1 (Homo sapiens) [1]): 1 nM
2 | H6FXa-RhCMVIL-10 Asp-144His (ligand) | – | – | – | – | – | – | proliferation of TF-1/IL-10R1 cells, EC50 relative to RhCMVIL-10 and cIL-10; considerable activity retained at 1,000 ng/ml [2]: 300 fold
3 | H6FXa-RhCMVIL-10 Gln-38Arg (ligand) | – | – | – | – | – | – | proliferation of TF-1/IL-10R1 cells, EC50 relative to RhCMVIL-10 and cIL-10; considerable activity retained at 1,000 ng/ml [2]: 100 fold
4 | RhCMVIL-10 mutant 1 (M1; Gln-38Arg, Asp-144His), RhCMVIL-10-FXaH6 (ligand) | 43 | 410 | 4620 | 0.000232 1/RUs | 0.199 | 0.00187 | Rm-obs (maximum RU observed at the highest concentration, 1000 nM) [3]: 0.8 RU
5 | RhCMVIL-10 mutant 2 (M2; Glu-142Gln, Asp-144His), RhCMVIL-10-FXaH6 (ligand) | 14.7 | 94.4 | 14500 | 0.000548 1/RUs | 0.212 | 0.00136 | Rm-obs (maximum RU observed at the highest concentration, 1000 nM) [3]: 3 RU
6 | Rhesus cytomegalovirus IL-10 (RhCMVIL-10), wild type (ligand) | 0.0651 | 1.3 | 1.18e+06 | 0.00105 1/RUs | 0.0767 | 0.00155 | stoichiometry N [4]: 2; Rm-obs (maximum RU observed at the highest concentration, 100 nM) [3]: 20.9 RU
7 | cIL-10 (from UniProt P22301) | – | – | – | – | – | – | Kd (IL-10R1 (Homo sapiens) [5]): 1 nM
